Our source for the binding signal values is paper PMC12412624, “Engineered Cas12j‐8 is a Versatile Platform for Multiplexed Genome Modulation in Mammalian Cells”.

Numbering of substitutions follows the chain as printed.

Data set [1] deals with T1, dCas12j-8 D313R D313R;D369A;E567A;D658A (bacteriophage (metagenome)).
T1 sequence: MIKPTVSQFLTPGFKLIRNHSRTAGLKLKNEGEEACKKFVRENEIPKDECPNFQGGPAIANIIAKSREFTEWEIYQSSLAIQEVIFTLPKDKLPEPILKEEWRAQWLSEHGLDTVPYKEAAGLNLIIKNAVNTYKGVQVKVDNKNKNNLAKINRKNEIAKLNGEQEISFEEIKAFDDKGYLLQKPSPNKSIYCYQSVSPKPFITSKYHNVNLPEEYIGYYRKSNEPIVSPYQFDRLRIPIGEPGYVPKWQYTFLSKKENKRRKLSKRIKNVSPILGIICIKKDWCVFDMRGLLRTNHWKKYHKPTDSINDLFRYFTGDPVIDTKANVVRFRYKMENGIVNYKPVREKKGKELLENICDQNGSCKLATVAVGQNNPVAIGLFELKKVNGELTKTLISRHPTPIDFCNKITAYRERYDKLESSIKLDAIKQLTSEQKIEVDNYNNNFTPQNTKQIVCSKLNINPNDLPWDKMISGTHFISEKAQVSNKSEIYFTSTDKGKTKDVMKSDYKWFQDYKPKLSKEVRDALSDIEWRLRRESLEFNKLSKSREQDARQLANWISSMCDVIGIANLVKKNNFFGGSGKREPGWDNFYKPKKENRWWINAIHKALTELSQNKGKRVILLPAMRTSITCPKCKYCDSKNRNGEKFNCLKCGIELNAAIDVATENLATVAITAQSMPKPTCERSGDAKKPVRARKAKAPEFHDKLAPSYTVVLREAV
The settings on record: HEK293T cells; panel 1c (compare within a panel only); scale: mean GFP / mean GFP of wild type, printed, no background subtraction.

Data set [2] concerns T2, dCas12j-8 E609R E609R;D369A;E567A;D658A (bacteriophage (metagenome)).
T2 sequence: T1 sequence with R313D, E609R
The settings on record: HEK293T cells; panel 1c (compare within a panel only); scale: mean GFP / mean GFP of wild type, printed, no background subtraction.

Data set [3] relates to T3, dCas12j-8 E258R+E547R E258R;E547R;D369A;E567A;D658A (bacteriophage (metagenome)).
T3 sequence: T1 sequence with E258R, R313D, E547R
The settings on record: HEK293T cells; panel 1d (compare within a panel only); scale: mean GFP / mean GFP of wild type, printed, no background subtraction.

Data set [4] relates to T4, dCas12j-8 E157R E157R;D369A;E567A;D658A (bacteriophage (metagenome)).
T4 sequence: T1 sequence with E157R, R313D
The conditions noted are these: HEK293T cells; panel 1c (compare within a panel only); scale: mean GFP / mean GFP of wild type, printed, no background subtraction.

Take “CUUUCAAGACUAAUAGAUUGCUCCUUACGAGGAGACACUCCCUAUCAGUGAUAGAG / TTNACTCCCTATCAGTGATAGAG / CTCTATCACTGATAGGGAGTNAA [TetO]”: the binding signal in data set [1] was 1.59; in data set [2], 0.336; in data set [3] it was 3.03; in data set [4] it was 1.39.
